Measurements as given in the supplement of paper PMC10567573.

B1: ISL2 (parent)
chain: HYPFLGAMGDHSKKKPGTAMCVGC
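Also: lentivirally expressed fusions sorted by FACS into six bins by GFP to DsRed ratio, PSI derived from sequencing read proportions per bin multiplied by bin number.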

Variants of: B1
Test: protein stability index of a GFP-peptide fusion (GPS, HEK-293T) (PSI 1-6); higher = more stable
Conditions: c terminus: a fixed tail appended
With G9D the protein stability index was 2.85. Work on G9K yielded a protein stability index of 2.52. With G9E the protein stability index was 3.58. G9Q showed a protein stability index of 2.77. In the case of G9T, the protein stability index is reported as 2.82. Variant G9N has a protein stability index of 2.58. Variant G9C has a protein stability index of 3.51. G9M showed a protein stability index of 2.65. For G9P, the protein stability index was 2.96. Variant G9V has a protein stability index of 2.09. G9S showed a protein stability index of 2.65. Variant G9W has a protein stability index of 1.86. Variant G9L has a protein stability index of 2.4. Work on G9F yielded a protein stability index of 1.7. In the case of G9Y, the protein stability index is reported as 2.31. In the case of G9I, the protein stability index is reported as 1.95. In the case of G9H, the protein stability index is reported as 3.05. In the case of G9R, the protein stability index is reported as 2.19. Work on G9A yielded a protein stability index of 3.37. Variant H11Y has a protein stability index of 1.99. With H11C the protein stability index was 2.64. Variant H11P has a protein stability index of 3.16. With H11T the protein stability index was 2.45. H11G showed a protein stability index of 2.81. In the case of H11I, the protein stability index is reported as 2.33. Work on H11D yielded a protein stability index of 3.5. Variant H11L has a protein stability index of 2.21. For H11R, the protein stability index was 2.92. H11E showed a protein stability index of 3.44. With H11M the protein stability index was 2.74. For H11V, the protein stability index was 2.39. H11N gave a protein stability index of 2.92. In the case of H11K, the protein stability index is reported as 2.9. Work on H11S yielded a protein stability index of 2.35. Work on H11W yielded a protein stability index of 1.93. With H11Q the protein stability index was 3.25. Work on H11A yielded a protein stability index of 2.69. H11F showed a protein stability index of 2.19. D10Q showed a protein stability index of 1.78. With D10R the protein stability index was 2.07. With D10E the protein stability index was 3.69. D10F gave a protein stability index of 1.81. Variant D10Y has a protein stability index of 1.56. With D10A the protein stability index was 2.39. With D10I the protein stability index was 2.2. Work on D10H yielded a protein stability index of 2.52. D10L gave a protein stability index of 2.39. Variant D10S has a protein stability index of 2.86. For D10N, the protein stability index was 2.07. For D10C, the protein stability index was 2.6. For D10T, the protein stability index was 2.37. Work on D10V yielded a protein stability index of 1.7. With D10M the protein stability index was 1.79. With D10K the protein stability index was 1.88. Variant D10P has a protein stability index of 2.35. For D10G, the protein stability index was 2.18. With D10W the protein stability index was 1.64. With K13S the protein stability index was 2.64. K13V showed a protein stability index of 2.4. With K13M the protein stability index was 2.31. K13T showed a protein stability index of 2.8. Work on K13E yielded a protein stability index of 3.07. Work on K13C yielded a protein stability index of 3.8. K13Y gave a protein stability index of 2.06. Variant K13P has a protein stability index of 2.84. Work on K13N yielded a protein stability index of 2.79. In the case of K13R, the protein stability index is reported as 1.8. In the case of K13I, the protein stability index is reported as 2.04. In the case of K13D, the protein stability index is reported as 3.18. With K13G the protein stability index was 2.65. Work on K13L yielded a protein stability index of 2.23. K13Q gave a protein stability index of 2.69. K13A showed a protein stability index of 2.15. Variant K13H has a protein stability index of 3.04. Variant K13F has a protein stability index of 2.34. For K13W, the protein stability index was 1.9. A7V gave a protein stability index of 2.37. In the case of A7G, the protein stability index is reported as 2.99. Work on A7R yielded a protein stability index of 2.31. A7P showed a protein stability index of 2.6. Work on A7T yielded a protein stability index of 2.93. Work on A7N yielded a protein stability index of 3.6. For A7K, the protein stability index was 2.86. Work on A7I yielded a protein stability index of 1.9. In the case of A7W, the protein stability index is reported as 1.95. For A7F, the protein stability index was 1.79. Variant A7H has a protein stability index of 2.45. Variant A7S has a protein stability index of 2.74. Variant A7L has a protein stability index of 2.45. For A7M, the protein stability index was 2.31. In the case of A7Q, the protein stability index is reported as 3.22. A7Y gave a protein stability index of 1.84. Work on S12L yielded a protein stability index of 1.99. S12M gave a protein stability index of 1.92. With S12R the protein stability index was 2.72. For S12V, the protein stability index was 2.58. S12E gave a protein stability index of 3.03. Work on S12I yielded a protein stability index of 1.8. With S12H the protein stability index was 2.73. Variant S12N has a protein stability index of 2.92. Variant S12W has a protein stability index of 2.52. In the case of S12D, the protein stability index is reported as 3.26. S12P gave a protein stability index of 2.27. Work on S12F yielded a protein stability index of 2.08. For S12T, the protein stability index was 2.59. In the case of S12C, the protein stability index is reported as 3.95. Variant S12K has a protein stability index of 2.56. S12Y gave a protein stability index of 2.48. Variant S12Q has a protein stability index of 3.07. Variant S12A has a protein stability index of 2.53. S12G gave a protein stability index of 2.56. Work on K15A yielded a protein stability index of 2.27. K15L gave a protein stability index of 2.42. In the case of K15P, the protein stability index is reported as 2.4. K15W gave a protein stability index of 1.67. For K15Y, the protein stability index was 2.02. In the case of K15S, the protein stability index is reported as 2.52. In the case of K15D, the protein stability index is reported as 2.75. Work on K15I yielded a protein stability index of 2.05. Variant K15E has a protein stability index of 2.77. K15V gave a protein stability index of 2.13. In the case of K15T, the protein stability index is reported as 2.75. With K15M the protein stability index was 2.2. With K15Q the protein stability index was 2.52. Variant K15F has a protein stability index of 2.07. Variant K15H has a protein stability index of 2.47. Work on K15N yielded a protein stability index of 2.61. K15C showed a protein stability index of 3.46. With K15G the protein stability index was 2.37. M8F showed a protein stability index of 2.55. Work on M8T yielded a protein stability index of 2.82. M8K showed a protein stability index of 3. Variant M8H has a protein stability index of 2.8. In the case of M8C, the protein stability index is reported as 3.33. For M8D, the protein stability index was 3.52. Work on M8G yielded a protein stability index of 3.85. M8R gave a protein stability index of 3.19. In the case of M8E, the protein stability index is reported as 3.81. For M8Y, the protein stability index was 2.51. Work on M8L yielded a protein stability index of 3.55. M8I showed a protein stability index of 2.3. In the case of M8V, the protein stability index is reported as 2.96. For M8A, the protein stability index was 4.25. Variant M8W has a protein stability index of 2.17. In the case of M8Q, the protein stability index is reported as 3.16. M8P showed a protein stability index of 3.07. M8N showed a protein stability index of 2.94. Work on M8S yielded a protein stability index of 2.52. Work on K14C yielded a protein stability index of 4.25. Variant K14R has a protein stability index of 2.67. K14W showed a protein stability index of 1.51. Work on K14N yielded a protein stability index of 2.8. K14G gave a protein stability index of 2.34. Work on K14I yielded a protein stability index of 2.78. Variant K14F has a protein stability index of 1.98. Work on K14T yielded a protein stability index of 2.58. For K14Q, the protein stability index was 2.45. Work on K14M yielded a protein stability index of 2.91. With K14E the protein stability index was 3.44. K14V gave a protein stability index of 2.73. Variant K14Y has a protein stability index of 1.74. K14P showed a protein stability index of 2.98. K14A gave a protein stability index of 2.29. K14H showed a protein stability index of 3.07. Variant K14L has a protein stability index of 2.44. With K14D the protein stability index was 3. Work on K14S yielded a protein stability index of 2.51.
